The text below walks through data of patent US20260337278 (published 2026).

Sequences and labels used below:
B1: SI-95X15 (antibody)
chain 1: not shown
chain 2: DIQMTQSPSSLSASVGDRVTITCRSSQNIVHSNGNTYLDWYQQTPGKAPKLLIYKVSNRFSGVPSRFSGSGSGTDFTFTISSLQPEDIATYYCFQYSHVPWTFGQGTKLQITGGGGSGGGGSGGGGSQVQLQQSGAEVKKPGSSVKVSCKASGYTFTNYYIYWVRQAPGQGLEWIGGINPTSGGSNFNEKFKTRVTITADESSTTAYMELSSLRSEDTAFYFCTRQGLWFDSDGRGFDFWGQGTTVTVSSGGGGSGSGSGGGGGSGGGGSGGGGSDILMTQSPSSMSVSLGDTVSITCHSSQDINSNIGWLQQRPGKSFKGLIYHGTNLDDEVPSRFSGSGSGADYSLTISSLESEDFADYYCVQYAQFPWTFGGGTKLEIKRTVAAPSVFIFPPSDEQLKSGTASVVCLLNNFYPREAKVQWKVDNALQSGNSQESVTEQDSKDSTYSLSSTLTLSKADYEKHKVYACEVTHQGLSSPVTKSFNRGEC
B2: SI-95X12 (antibody)
chain 1: not shown
chain 2: QVQLQQSGAEVKKPGSSVKVSCKASGYTFTNYYIYWVRQAPGQGLEWIGGINPTSGGSNFNEKFKTRVTITADESSTTAYMELSSLRSEDTAFYFCTRQGLWFDSDGRGFDFWGQGTTVTVSSGGGGSGGGGSGGGGSDIQMTQSPSSLSASVGDRVTITCRSSQNIVHSNGNTYLDWYQQTPGKAPKLLIYKVSNRFSGVPSRFSGSGSGTDFTFTISSLQPEDIATYYCFQYSHVPWTFGQGTKLQITGGGGSGSGSGGGGGSGGGGSGGGGSDILMTQSPSSMSVSLGDTVSITCHSSQDINSNIGWLQQRPGKSFKGLIYHGTNLDDEVPSRFSGSGSGADYSLTISSLESEDFADYYCVQYAQFPWTFGGGTKLEIKRTVAAPSVFIFPPSDEQLKSGTASVVCLLNNFYPREAKVQWKVDNALQSGNSQESVTEQDSKDSTYSLSSTLTLSKADYEKHKVYACEVTHQGLSSPVTKSFNRGEC
B3: SI-95X13 (antibody)
chain 1: not shown
chain 2: QVQLQQSGAEVKKPGSSVKVSCKASGYTFTNYYIYWVRQAPGQGLEWIGGINPTSGGSNFNEKFKTRVTITADESSTTAYMELSSLRSEDTAFYFCTRQGLWFDSDGRGFDFWGQGTTVTVSSGGGGSGGGGSGGGGSDIQMTQSPSSLSASVGDRVTITCRSSQNIVHSNGNTYLDWYQQTPGKAPKLLIYKVSNRFSGVPSRFSGSGSGTDFTFTISSLQPEDIATYYCFQYSHVPWTFGQGTKLQITGGGGSGGGGSGSGSGGGGGSGGGGSGGGGSDILMTQSPSSMSVSLGDTVSITCHSSQDINSNIGWLQQRPGKSFKGLIYHGTNLDDEVPSRFSGSGSGADYSLTISSLESEDFADYYCVQYAQFPWTFGGGTKLEIKRTVAAPSVFIFPPSDEQLKSGTASVVCLLNNFYPREAKVQWKVDNALQSGNSQESVTEQDSKDSTYSLSSTLTLSKADYEKHKVYACEVTHQGLSSPVTKSFNRGEC
B4: SI-95X9 (antibody)
chain 1: not shown
chain 2: DILMTQSPSSMSVSLGDTVSITCHSSQDINSNIGWLQQRPGKSFKGLIYHGTNLDDEVPSRFSGSGSGADYSLTISSLESEDFADYYCVQYAQFPWTFGGGTKLEIKRTVAAPSVFIFPPSDEQLKSGTASVVCLLNNFYPREAKVQWKVDNALQSGNSQESVTEQDSKDSTYSLSSTLTLSKADYEKHKVYACEVTHQGLSSPVTKSFNRGEC
B5: SI-95X8 (antibody)
chain 1: not shown
chain 2: B4 chain 2
B6: SI-95X7 (antibody)
chain 1: not shown
chain 2: B4 chain 2
B7: SI-95X5 (antibody)
chain 1: not shown
chain 2: B4 chain 2

For this assay, the target named is EGFRvIII (human, UniProt P00533). Kind of assay: BLI. (Biolayer interferometry detects binding as a change in optical thickness at a sensor tip.)
Take B1: the affinity, expressed as Kd, was 0.175 nM.

In the case of B2, the Kd – broadly, the equilibrium constant for the complex coming apart – came to 7.8 nM.

The molecule B3 displayed a dissociation constant (Kd) of 8.77 nM.

On to B4, for which the Kd came to 6.16 nM.

B5 came in with a Kd of 6.97 nM.

Turning to B6, the dissociation constant (Kd) stood at 8.41 nM.

The molecule B7 showed a Kd of 7.94 nM.
